Results as given in paper PMC11190312.

Experiments:
[1] = target: SARS-CoV-2 N protein expressed in bacteria (N-Bact) (SARS-CoV-2) (UniProt P0DTC9); assay: SPR; single cycle kinetics, […]; global fit to 1:1 Langmuir model; […]
[2] = target: SARS-CoV-2 N protein secreted by mammalian Expi293 cells (N-Expi) (SARS-CoV-2) (UniProt P0DTC9); assay: as above

“Recombinant human MASP-2 S618A, full-length, stabilized in proenzyme form” was tested, and the Kd [1] was 0.0123 µM, the koff [1] was 0.00015 s⁻¹ and the kon [1] was 13900 M⁻¹ s⁻¹. For the same substance, the Kd [2] was 0.0137 µM, the koff [2] was 0.000172 s⁻¹ and the kon [2] was 14400 M⁻¹ s⁻¹.
